One assay addresses dpyl2_human DPYSL2 (UniProt Q16555).
The next assay deals with T1, ca094_human C1orf94 (UniProt Q6P1W5).
T1 sequence: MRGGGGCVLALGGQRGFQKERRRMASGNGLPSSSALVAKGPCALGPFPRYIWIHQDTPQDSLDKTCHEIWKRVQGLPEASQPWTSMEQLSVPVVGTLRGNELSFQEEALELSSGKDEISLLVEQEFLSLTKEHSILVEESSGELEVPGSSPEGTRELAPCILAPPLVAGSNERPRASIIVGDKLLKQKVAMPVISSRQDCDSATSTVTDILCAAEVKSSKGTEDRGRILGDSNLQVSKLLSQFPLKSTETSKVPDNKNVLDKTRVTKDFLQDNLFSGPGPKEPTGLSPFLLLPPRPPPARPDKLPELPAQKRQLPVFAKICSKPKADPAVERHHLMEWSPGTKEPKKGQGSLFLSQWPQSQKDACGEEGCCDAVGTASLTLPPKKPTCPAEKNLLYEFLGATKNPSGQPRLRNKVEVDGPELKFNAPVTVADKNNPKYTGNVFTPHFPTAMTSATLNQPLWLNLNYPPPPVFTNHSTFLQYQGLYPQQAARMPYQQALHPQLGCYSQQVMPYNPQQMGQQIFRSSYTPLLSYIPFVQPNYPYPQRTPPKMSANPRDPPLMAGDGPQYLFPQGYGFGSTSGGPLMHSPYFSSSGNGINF

The target of another assay is T2, traf1_human TRAF1 (UniProt Q13077).
T2 sequence: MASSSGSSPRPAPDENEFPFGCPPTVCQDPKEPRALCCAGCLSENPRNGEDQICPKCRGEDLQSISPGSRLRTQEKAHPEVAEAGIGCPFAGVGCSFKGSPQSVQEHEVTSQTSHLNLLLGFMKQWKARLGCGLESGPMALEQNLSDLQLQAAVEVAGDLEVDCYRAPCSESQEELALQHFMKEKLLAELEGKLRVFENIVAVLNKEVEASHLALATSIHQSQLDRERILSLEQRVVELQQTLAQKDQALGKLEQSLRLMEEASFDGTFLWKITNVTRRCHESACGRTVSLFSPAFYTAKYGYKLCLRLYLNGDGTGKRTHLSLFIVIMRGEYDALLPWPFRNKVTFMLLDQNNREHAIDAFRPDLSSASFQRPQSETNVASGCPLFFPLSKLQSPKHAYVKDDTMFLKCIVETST

The target in a further assay is drc12_human DRC12 (UniProt Q494R4).
Sequence of drc12_human DRC12 (Q494R4 whole entry): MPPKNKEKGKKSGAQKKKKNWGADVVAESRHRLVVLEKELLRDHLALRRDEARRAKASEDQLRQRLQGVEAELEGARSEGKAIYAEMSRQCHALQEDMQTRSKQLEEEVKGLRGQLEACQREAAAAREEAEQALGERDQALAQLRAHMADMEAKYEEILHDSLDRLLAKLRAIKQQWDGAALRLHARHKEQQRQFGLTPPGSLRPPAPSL
The target in the next assay is T3, zbt14_human ZBTB14 (UniProt O43829).
T3 sequence: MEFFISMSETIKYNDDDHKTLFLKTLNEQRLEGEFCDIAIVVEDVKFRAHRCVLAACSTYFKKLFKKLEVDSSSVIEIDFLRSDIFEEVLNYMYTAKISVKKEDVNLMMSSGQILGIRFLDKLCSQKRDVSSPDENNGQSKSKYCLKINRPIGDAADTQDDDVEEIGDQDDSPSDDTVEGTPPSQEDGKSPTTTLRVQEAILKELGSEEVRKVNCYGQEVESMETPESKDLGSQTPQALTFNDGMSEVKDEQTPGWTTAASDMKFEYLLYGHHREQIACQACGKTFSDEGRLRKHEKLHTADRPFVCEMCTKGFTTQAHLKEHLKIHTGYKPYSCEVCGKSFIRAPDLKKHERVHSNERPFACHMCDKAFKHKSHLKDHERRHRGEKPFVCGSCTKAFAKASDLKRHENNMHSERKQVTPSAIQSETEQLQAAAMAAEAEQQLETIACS

The target of another assay is T4, acy3_human ACY3 (UniProt Q96HD9).
T4 sequence: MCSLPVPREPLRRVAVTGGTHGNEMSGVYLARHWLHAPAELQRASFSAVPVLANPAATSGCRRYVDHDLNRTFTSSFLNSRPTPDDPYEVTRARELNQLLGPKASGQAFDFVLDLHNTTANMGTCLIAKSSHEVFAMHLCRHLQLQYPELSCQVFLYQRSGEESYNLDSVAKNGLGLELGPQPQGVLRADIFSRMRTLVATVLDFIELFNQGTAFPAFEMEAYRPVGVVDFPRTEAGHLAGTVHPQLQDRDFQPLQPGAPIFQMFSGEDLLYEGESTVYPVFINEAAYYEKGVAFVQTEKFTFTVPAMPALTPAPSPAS

For a further assay, the target named is T5, prdx3_human PRDX3 (UniProt P30048).
T5 sequence: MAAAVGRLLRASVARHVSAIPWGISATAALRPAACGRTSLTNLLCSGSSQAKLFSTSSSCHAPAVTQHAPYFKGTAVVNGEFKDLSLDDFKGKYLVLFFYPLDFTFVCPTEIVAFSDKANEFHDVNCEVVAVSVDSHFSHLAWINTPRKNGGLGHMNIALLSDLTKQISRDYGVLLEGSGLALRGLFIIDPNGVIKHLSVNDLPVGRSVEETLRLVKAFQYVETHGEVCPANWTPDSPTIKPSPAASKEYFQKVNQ

A further assay has as its target T6, dctd_human DCTD (UniProt P32321).
T6 sequence: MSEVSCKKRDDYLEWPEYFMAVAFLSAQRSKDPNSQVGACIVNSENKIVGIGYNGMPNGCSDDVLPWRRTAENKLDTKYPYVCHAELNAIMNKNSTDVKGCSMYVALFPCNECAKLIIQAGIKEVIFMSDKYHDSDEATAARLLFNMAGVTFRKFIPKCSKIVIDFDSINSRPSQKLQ

For “Golgi reassembly-stacking protein 2 (Homo sapiens) (from UniProt Q9H8Y8) L320R”, the “effect of a mutation on the interaction” value was “with no effect” in the assay with dpyl2_human DPYSL2; “with no effect” with ca094_human C1orf94; “with no effect” with traf1_human TRAF1; “with no effect” with drc12_human DRC12; “with no effect” in the assay with zbt14_human ZBTB14; “disrupting interaction strength” with acy3_human ACY3. The “effect of a mutation on the interaction” value with prdx3_human PRDX3 is “disrupting interaction strength”; in the assay with dctd_human DCTD, “with no effect”.

Values taken from IntAct's records for PubMed 29892012.
